Blank lines part the entries; values can stand above or below the binder they belong to.
Tests used:
[1] = molecular target: T1, recombinant human transferrin receptor 1 (rhTfR-1) (human, UniProt P02786 89-760); assay: ELISA, purified VNAR monomer on plate-adsorbed rhTfR-1, HRP anti-FLAG [panel HUMAN TfR BINDING]
T1 construct: extracellular domain; also called human TfR-1; human TfR1
Method: (§1) VNARs were purified from 500 mL bacterial cultures which were grown in auto-induction medium (Novagen) and periplasmic fractions were extracted by osmotic shock by resuspending bacteria in TES buffer (50 mM Tris, 1 mM EDTA, 20% Sucrose) mixed with an equal volume of TES diluted 1:5 in water. After 30 minutes on ice, lysates were clarified by centrifugation and the salt concentrations were adjusted to 500 mM NaCl and 10 mM imidazole in 1×PBS. Periplasmic extracts were then purified with Nickel-Sepharose resin (Qiagen), washed in 1×PBS, 10 mM imidazole, 500 mM NaCl, and then eluted in 1×PBS, 500 mM imidazole, 500 mM NaCl. The purified protein was then buffer-exchanged against PBS and concentrated by centrifugation with Vivaspin 20 filters (Sartorius, MWCO 5000). Endotoxin was removed using VivaPure Q mini column (Sartorius) and the protein was sterile filtered (0.22 μm). After estimating the protein concentration using Bradford reagent (Pierce), the purified protein was stored in frozen aliquots. EC50 binding curves of purified VNAR monomers to immobilized to human or mouse TfR-1 ([…]) were determined by standard protein ELISA an HRP-conjugate anti-FLAG M2 antibody. For pH binding sensitivity testing, purified monomer was bound at pH7 and then washed 3 times for 3 min at either pH5.2 or pH7.2.

[2] = molecular target: T2, recombinant mouse transferrin receptor 1 (rmTfR-1) (mouse, UniProt Q62351 89-763); assay: ELISA, purified VNAR monomer on plate-adsorbed rmTfR-1, HRP anti-FLAG [panel MOUSE TfR BINDING]
T2 construct: extracellular domain; also called mouse TfR-1
Method: as §1

[3] = molecular target: T1, recombinant human transferrin receptor …; assay: competitive phage ELISA
[4] = molecular target: T2, recombinant mouse transferrin receptor …; assay: competitive phage ELISA
[5] = molecular target: T1, recombinant human transferrin receptor …; assay: ELISA, monomer bound at pH 7 to rhTfR-1, washed 3 x 3 min at pH 7.2 or pH 5.2, HRP anti-FLAG [panel VNAR C11 on hTfR-1]
Method: as §1

[6] = molecular target: T2, recombinant mouse transferrin receptor …; assay: ELISA, monomer bound at pH 7 to rmTfR-1, washed 3 x 3 min at pH 7.2 or pH 5.2, HRP anti-FLAG [panel VNAR C11 on mTfR-1]
Method: as §1

[7] = molecular target: T2, recombinant mouse transferrin receptor …; assay: ELISA, monomer bound at pH 7 to rmTfR-1, washed 3 x 3 min at pH 7.2 or pH 5.2, HRP anti-FLAG [panel VNAR H11 on mTfR-1]
Method: as §1

[8] = molecular target: T1, recombinant human transferrin receptor …; assay: ELISA on plate-coated hTfR1 (Example 15, as in Example 1D) [panel hTfR1]
Method: (§2) The binding specificity of H01-Fc and F02-Fc for hTfR-1 and hTfR-2 were determined by an ELISA as described in Example 1D. Anti-TfR-2 was used as a positive control for TfR-2 binding. […] Both H01-Fc […] F02 Fc bound hTfR-1 with high specificity (˜100 nM) and neither bound hTfR-2 (FIG. 18).

[9] = molecular target: T3, human transferrin receptor 2 (hTfR-2) (human, UniProt Q9UP52 105-801, limits assumed); assay: ELISA on plate-coated hTfR2 (Example 15, as in Example 1D) [panel hTfR2]
T3 construct: also called human TfR-2
T3 sequence (looked up): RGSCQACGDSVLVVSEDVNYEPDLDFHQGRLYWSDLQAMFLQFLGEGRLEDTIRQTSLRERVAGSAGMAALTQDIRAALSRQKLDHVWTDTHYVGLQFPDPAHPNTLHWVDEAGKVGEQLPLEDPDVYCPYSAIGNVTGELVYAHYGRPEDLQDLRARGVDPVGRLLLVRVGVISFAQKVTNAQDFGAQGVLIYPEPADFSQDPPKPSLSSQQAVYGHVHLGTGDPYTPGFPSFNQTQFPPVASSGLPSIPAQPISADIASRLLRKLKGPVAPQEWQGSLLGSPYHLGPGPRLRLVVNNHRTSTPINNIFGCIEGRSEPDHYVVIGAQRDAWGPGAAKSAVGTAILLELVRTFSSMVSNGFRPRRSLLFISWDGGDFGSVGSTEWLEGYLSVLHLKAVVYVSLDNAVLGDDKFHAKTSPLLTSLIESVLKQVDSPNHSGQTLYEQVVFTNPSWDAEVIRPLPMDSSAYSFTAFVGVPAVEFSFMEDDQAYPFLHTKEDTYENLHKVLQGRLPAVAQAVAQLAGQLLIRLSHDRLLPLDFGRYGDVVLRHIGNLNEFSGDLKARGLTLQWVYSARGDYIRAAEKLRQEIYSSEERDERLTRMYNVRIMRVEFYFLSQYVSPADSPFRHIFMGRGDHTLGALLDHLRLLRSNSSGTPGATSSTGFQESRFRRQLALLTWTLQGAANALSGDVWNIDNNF
Method: as §2

[10] = molecular target: T2, recombinant mouse transferrin receptor …; assay: ELISA; target adsorbed to plate; HRP anti-human-Fc detection
Method: (§3) To test whether the bispecific molecules retained binding to both transferrin receptor and BACE1, the purified proteins were titrated against either hTfR, mTfR, or BACE1 adsorbed to the solid phase of an ELISA plate. Binding was measured with an […] anti-human-Fc antibody (Example 8; Table 3).
(§4) To test whether the bispecific molecules retained binding to both transferrin receptor and BACE1, the purified proteins were titrated against hTfR, mTfR, or BACE1 adsorbed to the solid phase of an ELISA plate. Binding was measured with an HRP-labelled anti-human-Fc antibody.

[11] = molecular target: T2, recombinant mouse transferrin receptor …; assay: EC50 on recombinant target, presumably ELISA as in Example 8B
Method: as §3, §4

[12] = molecular target: T1, recombinant human transferrin receptor …; assay: ELISA, monomer bound at pH 7 to rhTfR-1, washed 3 x 3 min at pH 7.2 or pH 5.2, HRP anti-FLAG [panel VNAR G02 on hTfR-1]
Method: as §1

[13] = molecular target: T2, recombinant mouse transferrin receptor …; assay: ELISA, monomer bound at pH 7 to rmTfR-1, washed 3 x 3 min at pH 7.2 or pH 5.2, HRP anti-FLAG [panel VNAR G02 on mTfR-1]
Method: as §1

T2 sequence (Q62351 89-763): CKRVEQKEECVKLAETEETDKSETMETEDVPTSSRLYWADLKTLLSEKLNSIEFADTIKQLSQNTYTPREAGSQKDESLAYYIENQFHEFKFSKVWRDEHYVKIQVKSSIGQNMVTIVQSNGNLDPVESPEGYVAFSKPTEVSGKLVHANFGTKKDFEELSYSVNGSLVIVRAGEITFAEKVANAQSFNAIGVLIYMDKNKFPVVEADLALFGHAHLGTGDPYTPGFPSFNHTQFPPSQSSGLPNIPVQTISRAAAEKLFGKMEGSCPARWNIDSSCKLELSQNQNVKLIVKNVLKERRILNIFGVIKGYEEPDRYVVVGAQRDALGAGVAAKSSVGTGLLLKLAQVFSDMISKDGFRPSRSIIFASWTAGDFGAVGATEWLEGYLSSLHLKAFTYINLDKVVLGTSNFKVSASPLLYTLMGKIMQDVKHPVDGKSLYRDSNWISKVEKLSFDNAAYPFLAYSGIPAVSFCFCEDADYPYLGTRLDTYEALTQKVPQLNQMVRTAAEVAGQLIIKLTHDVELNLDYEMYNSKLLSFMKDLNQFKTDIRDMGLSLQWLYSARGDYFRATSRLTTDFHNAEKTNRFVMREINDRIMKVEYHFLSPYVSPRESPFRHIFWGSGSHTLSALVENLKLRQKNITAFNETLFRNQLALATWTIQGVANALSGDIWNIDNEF
T1 sequence (P02786 89-760): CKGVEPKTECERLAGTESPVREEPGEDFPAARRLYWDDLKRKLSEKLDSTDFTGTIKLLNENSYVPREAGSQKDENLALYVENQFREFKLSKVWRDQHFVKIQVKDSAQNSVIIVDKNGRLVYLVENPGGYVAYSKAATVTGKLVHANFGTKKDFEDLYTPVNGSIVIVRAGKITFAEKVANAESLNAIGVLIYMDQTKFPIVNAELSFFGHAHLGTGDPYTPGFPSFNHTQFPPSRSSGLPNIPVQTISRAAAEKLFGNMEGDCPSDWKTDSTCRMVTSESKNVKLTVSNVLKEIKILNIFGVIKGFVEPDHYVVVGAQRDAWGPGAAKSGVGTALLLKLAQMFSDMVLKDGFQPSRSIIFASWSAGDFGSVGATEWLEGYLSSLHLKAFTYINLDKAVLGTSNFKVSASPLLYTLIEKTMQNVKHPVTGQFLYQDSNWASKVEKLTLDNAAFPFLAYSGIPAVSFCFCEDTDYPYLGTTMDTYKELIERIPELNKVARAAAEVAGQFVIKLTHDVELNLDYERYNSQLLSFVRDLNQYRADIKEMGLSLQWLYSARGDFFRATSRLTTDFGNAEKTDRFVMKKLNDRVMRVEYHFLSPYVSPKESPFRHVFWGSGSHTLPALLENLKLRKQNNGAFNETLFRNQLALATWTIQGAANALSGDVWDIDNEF

binding result [1]: binds
binding result [2]: binds
B1: VNAR A03 (VNAR)
VNAR: ARVDQTPQTITKETGESLTINCVLRDRDCALSSTHWYRKKSGSTNEESIPKGGRYVETVNSGSKSFSLRINDLTVEDSGTYRCNVYSLTANWWCDVYGGGTVVTVNA
notes: Shark VNAR single domain; not shown: FLAG tag of the pOsD2 vector

binding result [3]: binds
binding result [4]: binds
B2: VNAR C02 (VNAR)
VNAR: ARVDQTPQTITKETGESLTINCVLRDNDCALSSTYWYRKKSGSTNEESISKGGRYVETVNSGSKSFSLRINDLTVEDSGTYRCNVYQPPSTESLYWCDVYGGGTAVTVNA
notes: as for B1

binding result [5]: binds
binding result [6]: binds
B3: VNAR C11 (VNAR)
VNAR: ARVDQTPQTITKETGESLTINCVLRDKDCALSSTSWYRKKSGSTNEESISKGGRYVETVNSGSKSFSLRINDLTVEDSGTYRCNVYARPRPDNLNWCDVYGGGTAVTVNA
notes: as for B1

binding result [1]: binds
binding result [7]: binds
B4: VNAR H11 (VNAR)
VNAR: ARVDQTPQTITKETGESLTINCVLRDNDCALSSTYWYRKKSGSTNEERMTKGGRYVETVNSGSKSFSLRINDLTVEDSGTYRCNVYGLVDCASGMNWIDVYGGGTVVTVNA
notes: as for B1

EC50 (read off the curve) [8]: ~8 nM
binding result [9]: no binding (tested: 10^-6 M)
B5: H01-Fc (bivalent VNAR-Fc fusion protein) (Fc fusion)
chain: ARVDQTPQTITKETGESLTINCVLRDSNCALSSTYWYRKKSGSTKEESISKGGRYVETVNSGSKSFSLRINDLTVEDSGTYRCNVWHDLVWSVCTTDVYGGGTVVTVNAASGAGGGGS
notes: VNAR fused to the N-terminus of the Fc; bivalent; not shown: human IgG1-Fc region (CH2 and CH3 domains) from a modified pFUSE-hIgG1e3-Fc2 plasmid

EC50 [10]: 34.3 nM
EC50 [11]: 34.2 nM
EC50 (read off the curve) [8]: ~20 nM
binding result [9]: no binding (tested: 10^-6 M)
B6: F02-hFc (bivalent F02 VNAR-hFc fusion protein) (Fc fusion)
chain: ARVDQTPQTITKETGESLTINCVLRDNDCTLSSTHWYRKKSGSTNEERISKGGRYVETVNSGSKSFSLRINDLTVEDSGTYRCNVYAMTRNWWCDVYGGGTVVTVNAASGAGGGGS
notes: VNAR fused to the N-terminus of the Fc; bivalent, about 75 kDa; also called F02-Fc; F02 Fc; not shown: human IgG1-Fc region (CH2 and CH3 domains) from a modified pFUSE-hIgG1e3-Fc2 plasmid

binding result [4]: binds
B7: VNAR H01 (VNAR)
VNAR: ARVDQTPQTITKETGESLTINCVLRDSNCALSSTYWYRKKSGSTKEESISKGGRYVETVNSGSKSFSLRINDLTVEDSGTYRCNVWHDLVWSVCTTDVYGGGTVVTVNA
notes: as for B1

binding result [12]: binds
binding result [13]: binds
B8: VNAR G02 (VNAR)
VNAR: ARVDQTPQTITKETGESLTINCVLRDRDCALSSTHWYRKKSGSTNEESISKGGRYVETVDSGSKSFSLRINDLTVEDSGTYRCNVYQSPVGRRWWCDVYGGGTVVTVNA
notes: as for B1

binding result [3]: binds
binding result [4]: binds
B9: VNAR A07 (VNAR)
VNAR: ARVDQTPQTITKEEGESLTINCVLRDSSSALASTSWYRKKSGSTREETISKGGRYVETVNSGSKSFSLRINDLTVEDSGTYRCNVYELVEDTSAYEIGVDVYGDGTAVTVNA
notes: Shark VNAR single domain; also called clone A07; not shown: FLAG tag of the pOsD2 vector
